From patent US12068729

How the values were obtained:
[1] = biological target: human Factor XII (FXII), Enzyme Research Laboratories Cat #1212 (human); experiment: SPR Biacore, mAb captured by anti-hFc, 25 C
[2] = biological target: human activated Factor XII (FXIIa), Enzyme Research Laboratories Cat #1212a (human); experiment: SPR Biacore, mAb captured by anti-hFc, 25 C
[3] = biological target: human Factor XII (FXII), Enzyme Research Laboratories Cat #1212 (human); experiment: SPR Biacore, mAb captured by anti-hFc, 37 C
[4] = biological target: human activated Factor XII (FXIIa), Enzyme Research Laboratories Cat #1212a (human); experiment: SPR Biacore, mAb captured by anti-hFc, 37 C

## Comparator 1, a monoclonal antibody against human FXII/FXIIa having VH/VL sequences of antibody 3F7 according to U.S. Pat. No. 9,518,127 (CSL Behring GmbH)
[1]
  100 nM Ag Bound (RU): 9.5 RU
[2]
  100 nM Ag Bound (RU): 297 RU
  Kd: 2.54 nM
  koff: 0.000996 s⁻¹
  kon: 392000 M⁻¹ s⁻¹
  t½: 11.6 min
[3]
  100 nM Ag Bound (RU): 9.9 RU
[4]
  100 nM Ag Bound (RU): 312 RU
  Kd: 8.25 nM
  koff: 0.00515 s⁻¹
  kon: 624000 M⁻¹ s⁻¹
  t½: 2 min

## Comparator 2, a human monoclonal antibody against human FXII having VH/VL sequences of antibody 15H8 according to U.S. Pat. No. 9,574,013 (Vanderbilt Univ./Aronora)
[1]
  100 nM Ag Bound (RU): 86.1 RU
  Kd: 37.3 nM
  koff: 0.00247 s⁻¹
  kon: 66100 M⁻¹ s⁻¹
  t½: 4.7 min
[2]
  100 nM Ag Bound (RU): 197 RU
  Kd: 2.93 nM
  koff: 0.00451 s⁻¹
  kon: 1.54e+06 M⁻¹ s⁻¹
  t½: 2.6 min
[3]
  100 nM Ag Bound (RU): 83.8 RU
  Kd: 45.3 nM
  koff: 0.0542 s⁻¹
  kon: 1.2e+06 M⁻¹ s⁻¹
  t½: 0 h
[4]
  100 nM Ag Bound (RU): 187 RU
  Kd: 2.76 nM
  koff: 0.02 s⁻¹
  kon: 7.25e+06 M⁻¹ s⁻¹
  t½: 1 min

## Isotype control (antibody)
[1]
  100 nM Ag Bound (RU): 10 RU
[2]
  100 nM Ag Bound (RU): 0.1 RU
[3]
  100 nM Ag Bound (RU): 10.3 RU
[4]
  100 nM Ag Bound (RU): -2.7 RU
